Experimental data as given in article PMC4332252 (The Journal of Cell Biology, 2015).
Each block holds one binder with its values, some of them ahead of it.

How the values were obtained:
SEC-MALS = target: the molecule itself; experiment: SEC-MALS
Plk4-EGFP = target: T1, Plk4-EGFP (Drosophila melanogaster, UniProt O97143 1-769); experiment: co-IP
T1 sequence (looked up): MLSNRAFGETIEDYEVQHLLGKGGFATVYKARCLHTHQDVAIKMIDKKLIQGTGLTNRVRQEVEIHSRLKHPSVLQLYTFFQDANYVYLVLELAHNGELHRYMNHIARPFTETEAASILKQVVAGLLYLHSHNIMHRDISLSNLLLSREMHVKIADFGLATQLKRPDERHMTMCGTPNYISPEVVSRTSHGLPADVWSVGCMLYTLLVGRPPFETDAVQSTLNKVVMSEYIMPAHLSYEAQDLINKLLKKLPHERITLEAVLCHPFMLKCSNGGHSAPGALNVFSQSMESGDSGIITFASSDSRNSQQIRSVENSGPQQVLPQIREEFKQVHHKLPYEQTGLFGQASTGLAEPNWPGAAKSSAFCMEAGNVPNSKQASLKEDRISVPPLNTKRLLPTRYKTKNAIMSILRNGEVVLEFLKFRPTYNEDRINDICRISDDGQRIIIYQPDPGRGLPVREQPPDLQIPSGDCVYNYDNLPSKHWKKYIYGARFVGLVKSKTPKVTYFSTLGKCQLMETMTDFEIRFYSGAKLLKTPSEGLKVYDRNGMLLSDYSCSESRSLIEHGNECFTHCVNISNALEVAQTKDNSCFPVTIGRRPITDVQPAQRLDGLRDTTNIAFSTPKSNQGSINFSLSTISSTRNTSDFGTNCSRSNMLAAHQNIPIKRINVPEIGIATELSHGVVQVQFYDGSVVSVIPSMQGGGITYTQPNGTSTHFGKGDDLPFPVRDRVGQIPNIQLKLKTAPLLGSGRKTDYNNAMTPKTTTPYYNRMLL

B1: His6-Asl-A (aa 1-357) (domain or fragment, Drosophila melanogaster, UniProt Q9VNE4 1-357, looked up)
chain: MNTPGISLFQGADALNINSTLDRQEEEEALQDQKRREEELGRIMVNAFDDLLDEENTIDSTTNYQSELEQPPVLPNYPSHPHHKPLQDDAQRANEIEMHRLQILLESKNNELQNVNQVANAAHKKLDDLQKHLSIMQAELDRAIREKQNTHELLVETKETCSNKDSDLDKLRSEKKQLEEDNTRLVGQLEAAKTLLTDVQSKYDMVQASKQKWEERNADLRLKQMEEAHRAQSDLLQQQLCQMKDQLDRKQNELDQINSRYNALQSGHETMLVDKAAKINELSQALDEAQMRCNQLSARPDLQAENRRQQQCIVDLKARIAYLEQTVASLHERLNETTTELDLIDSVIQQHQADESP
stoichiometry N (SEC-MALS): 2

fold increase of bound Plk4-myc with Asl coexpressed, against without Asl (Plk4-EGFP): ~4 fold
B2: Plk4-myc (natural protein, Drosophila melanogaster, UniProt O97143 1-769, looked up)
chain: T1 sequence (looked up)

B3: His6-Asl-C (aa 626-994) (domain or fragment, Drosophila melanogaster, UniProt Q9VNE4 626-994, looked up)
chain: EAVAVAKESSENCSKCIESIAEITKAEIQLLKLQNVNSMQAKELKELEHALEQSKNLQAEMQEKIELSNKQDELISDLKERAKQFEAYIRQQEEHKQQNKCTPSPKSNSVSPSDPSPKELTQNRIRLIEQRVRDEMAKLFAAELKRFTNRLQKSEERSQCLQREYQTVCAELQQRQTEVDLLKQTILAERENIDEILAGREEKQKEMLQKCRQELQAKNQRIAELLREVEEQHASIDSERQSMKAVMAQWEKQRQSVDQVEHHWRQQLESLRSTHEEAMRSAQQRYQSAKRTAHNYKLYAEDKEAHMKREYERIKHEYELSLAKIEATMNQHLERRSREKHRDKENVPSNSSSDPITNSNRKPKGNGHS
stoichiometry N (SEC-MALS): 3

B4: His6-Asl-B (aa 358-625) (domain or fragment, Drosophila melanogaster, UniProt Q9VNE4 358-625, looked up)
chain: TSRLSQMGGSRLVGSTPLNPLDRVGHIKQELYRALGNLKNKREEVRRLEKLLEERNQELRVLRDQENQSLVQLETLNEGKMRLENKVKAMQQELEEQKHRSQQESDVHSQLNSIVAERDALREKRQQIEEDLEQLKQQNESLQRNYDQLSQENRQLRTRETADNLRLELERHKILLRDSQSEVERLKKLYSDIATDKESLGYELRKLRESDTLKELQDQRQNLATVQRNLQLAEMKSEELKKLLETEKLSHERDLQALRQRSEREKRE
stoichiometry N (SEC-MALS): 2
